In the Immune Epitope Database (IEDB) one finds IC50 data, which are given here for eleven sequences.

The target in this experiment is HLA-A*02:01. The experiment in a line: IEDB peptide-MHC binding, cellular MHC/competitive/fluorescence; ≥ and ≤ were set here for values at or beyond the usual limits of such assays. The conditions noted are these: source organism: Human herpesvirus 5 strain AD169.
In the case of ALFFFDIDL, the IC50 is 2 µM. The same measure for DIYRIFAEL: 12 µM. On to GLSISGNLL, for which the IC50 came to 16 µM. As for ILARNLVPMV, the IC50 turned out to be 1 µM.

LLQTGIHVRV registered a half-inhibitory concentration (IC50) of 5 µM. For MLNIPSINV, the half-maximal inhibitory concentration (IC50) amounted to 2.5 µM. Compared with the last sequence, the IC50 is about 2-fold lower. As to NLLMNGQQI, the IC50 came out at 5 µM. The same measure for RLLQTGIHV: 2 µM; for SIYVYALPL: 5 µM; for VLCPKNMII: 12 µM. YLESFCEDV returned an IC50 of 16 µM.
